Source: patent US20150139975A1 (published 2015)
Positions count from the first letter of the chain named.

Target: T1, C3b (UniProt P01024 23-667; P01024 749-1663)
T1 construct: Amine-coupled to a CM5 Biacore chip in the SPR assays; in solution in the cofactor assay; also called complement C3b
Test: SPR (Biacore), C3b amine-coupled to a CM5 chip, steady-state fit over two flow cells (1540 and 3030 RU of C3b)
Method: FIG. 3G—(i) and (ii)—Use of SPR to measure affinity of (i)rFH and (ii) plasma-purified FH for C3b coupled to aCM5 sensor chip (Biacore). Duplicate sensorgrams are shown for a concentration series (5.4 μM, 1.0 μM, 0.5 μM, 0.1 μM) flowed over 1540 response units of immobilised C3b. (iii) and (iv)—Plots of response units versus (iii)rFH or (iv) plasma-purified FH concentrations for two different flow cells with either 1540 RUs (lower curve in each plot) or 3030 RUs (upper curve in each plot) of C3b.

T1 sequence (P01024 23-667 limits assumed, chain 1 of 2): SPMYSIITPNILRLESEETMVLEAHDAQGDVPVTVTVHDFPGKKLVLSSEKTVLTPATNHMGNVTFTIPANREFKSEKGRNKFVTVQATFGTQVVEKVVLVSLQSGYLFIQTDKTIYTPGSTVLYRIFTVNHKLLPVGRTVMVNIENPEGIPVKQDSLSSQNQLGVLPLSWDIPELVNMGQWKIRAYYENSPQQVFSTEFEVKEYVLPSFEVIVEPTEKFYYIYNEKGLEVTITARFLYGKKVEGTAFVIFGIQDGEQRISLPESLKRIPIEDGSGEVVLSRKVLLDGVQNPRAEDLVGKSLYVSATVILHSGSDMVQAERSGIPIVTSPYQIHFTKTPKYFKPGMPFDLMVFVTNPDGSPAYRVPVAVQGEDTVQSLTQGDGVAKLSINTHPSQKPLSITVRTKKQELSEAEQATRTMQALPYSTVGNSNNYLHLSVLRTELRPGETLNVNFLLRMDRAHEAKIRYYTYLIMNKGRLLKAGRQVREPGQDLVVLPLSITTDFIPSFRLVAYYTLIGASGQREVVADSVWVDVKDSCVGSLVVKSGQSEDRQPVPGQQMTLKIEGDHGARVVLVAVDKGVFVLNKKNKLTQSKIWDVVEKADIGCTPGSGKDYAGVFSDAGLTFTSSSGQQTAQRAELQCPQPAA
T1 sequence (P01024 749-1663 limits assumed, chain 2 of 2): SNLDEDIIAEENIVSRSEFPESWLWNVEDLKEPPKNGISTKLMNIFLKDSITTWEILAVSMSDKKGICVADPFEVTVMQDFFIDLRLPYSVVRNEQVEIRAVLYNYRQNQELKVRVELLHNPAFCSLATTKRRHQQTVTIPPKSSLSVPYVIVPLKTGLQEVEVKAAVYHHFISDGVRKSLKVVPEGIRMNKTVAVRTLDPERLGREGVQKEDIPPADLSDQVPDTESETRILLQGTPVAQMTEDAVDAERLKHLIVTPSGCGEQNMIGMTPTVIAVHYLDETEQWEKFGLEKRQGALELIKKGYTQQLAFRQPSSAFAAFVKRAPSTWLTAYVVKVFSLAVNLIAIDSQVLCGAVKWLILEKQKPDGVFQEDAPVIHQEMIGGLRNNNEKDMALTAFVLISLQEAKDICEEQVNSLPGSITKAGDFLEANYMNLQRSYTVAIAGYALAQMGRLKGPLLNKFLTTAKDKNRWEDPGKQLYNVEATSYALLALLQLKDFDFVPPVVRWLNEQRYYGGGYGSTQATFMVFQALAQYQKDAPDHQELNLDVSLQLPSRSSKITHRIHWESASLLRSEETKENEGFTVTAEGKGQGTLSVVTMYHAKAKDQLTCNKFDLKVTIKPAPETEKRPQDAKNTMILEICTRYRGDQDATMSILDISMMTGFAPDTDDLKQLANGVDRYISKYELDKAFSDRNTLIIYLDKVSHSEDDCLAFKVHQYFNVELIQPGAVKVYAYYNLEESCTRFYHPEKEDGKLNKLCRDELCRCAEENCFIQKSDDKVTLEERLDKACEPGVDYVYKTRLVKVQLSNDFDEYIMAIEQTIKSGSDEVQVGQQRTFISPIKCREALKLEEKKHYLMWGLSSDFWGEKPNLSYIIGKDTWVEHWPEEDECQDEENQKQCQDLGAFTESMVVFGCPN

B1: recombinant human complement factor H (rFH) expressed from codon-optimised DNA in Pichia pastoris (other, UniProt P08603 19-1231, looked up)
chain: EDCNELPPRRNTEILTGSWSDQTYPEGTQAIYKCRPGYRSLGNIIMVCRKGEWVALNPLRKCQKRPCGHPGDTPFGTFTLTGGNVFEYGVKAVYTCNEGYQLLGEINYRECDTDGWTNDIPICEVVKCLPVTAPENGKIVSSAMEPDREYHFGQAVRFVCNSGYKIEGDEEMHCSDDGFWSKEKPKCVEISCKSPDVINGSPISQKIIYKENERFQYKCNMGYEYSERGDAVCTESGWRPLPSCEEKSCDNPYIPNGDYSPLRIKHRTGDEITYQCRNGFYPATRGNTAKCTSTGWIPAPRCTLKPCDYPDIKHGGLYHENMRRPYFPVAVGKYYSYYCDEHFETPSGSYWDHIHCTQDGWSPAVPCLRKCYFPYLENGYNQNYGRKFVQGKSIDVACHPGYALPKAQTTVTCMENGWSPTPRCIRVKTCSKSSIDIENGFISESQYTYALKEKAKYQCKLGYVTADGETSGSITCGKDGWSAQPTCIKSCDIPVFMNARTKNDFTWFKLNDTLDYECHDGYESNTGSTTGSIVCGYNGWSDLPICYERECELPKIDVHLVPDRKKDQYKVGEVLKFSCKPGFTIVGPNSVQCYHFGLSPDLPICKEQVQSCGPPPELLNGNVKEKTKEEYGHSEVVEYYCNPRFLMKGPNKIQCVDGEWTTLPVCIVEESTCGDIPELEHGWAQLSSPPYYYGDSVEFNCSESFTMIGHRSITCIHGVWTQLPQCVAIDKLKKCKSSNLIILEEHLKNKKEFDHNSNIRYRCRGKEGWIHTVCINGRWDPEVNCSMAQIQLCPPPPQIPNSHNMTTTLNYRDGEKVSVLCQENYLIQEGEEITCKDGRWQSIPLCVEKIPCSQPPQIEHGTINSSRSSQESYAHGTKLSYTCEGGFRISEENETTCYMGKWSSPPQCEGLPCKSPPEISHGVVAHMSDSYQYGEEVTYKCFEGFGIDGPAIAKCLGEKWSHPPSCIKTDCLSLPSFENAIPMGEKKDVYKAGEQVTYTCATYYKMDGASNVTCINSRWTGRPTCRDTSCVNPPTVQNAYIVSRQMSKYPSGERVRYQCRSPYEMFGDEEVMCLNGNWTEPPQCKDSTGKCGPPPPIDNGDITSFPLSVYAPASSVEYQCQNLYQLEGNKRITCRNGQWSEPPKCLHPCVISREIMENYNIALRWTAKQKLYSRTGESVEFVCKRGYRLSSRSHTLRTTCWDGKLEYPTCAKR
modifications: N-glycans removed with Endo Hf after expression
notes: mature; also called rhFH; recombinant FH
  Kd: 1400 nM

B2: plasma-purified human factor H (other, UniProt P08603 19-1231, looked up)
chain: B1 chain with I44V
notes: mature; Bought, plasma-derived; also called FH; plasma FH
  Kd: 2900 nM
